Drawing on US20070077617, this text covers relative cleavage efficiency for eight proteins.

Substitutions are numbered along the chain they refer to. In names and notes the source's numbering stands.

B1: OmpT protease variant OmpT D97F (protein)
chain: STETLSFTPDNINADISLGTLSGKTKERVYLAEEGGRKVSQLDWKFNNAAIIKGAINWDLMPQISIGAAGWTTLGSRGGNMVDQDWMDSSNPGTWTFESRHPDTQLNYANEFDLNIKGWLLNEPNYRLGLMAGYQESRYSFTARGGSYIYSSEEGFRDDIGSFPNGERAIGYKQRFKMPYIGLTGSYRYEDFELGGTFKYSGWVESSDNDEHYDPGKRITYRSKVKDQNYYSVAVNAGYYVTPNAKVYVEGAWNRVTNKKGNTSLYDHNNNTSDYSKNGAGIENYNFITTAGLKYTF
B2: OmpT protease variant OmpT D97S (protein)
chain: B1 chain with F97S
B3: OmpT protease variant OmpT D97A (protein)
chain: B1 chain with F97A
B4: OmpT protease variant OmpT D97T (protein)
chain: B1 chain with F97T
B5: OmpT protease variant OmpT D97E (protein)
chain: B1 chain with F97E
B6: OmpT protease variant OmpT D97Q (protein)
chain: B1 chain with F97Q
B7: OmpT protease variant OmpT D97C (protein)
chain: B1 chain with F97C
B8: OmpT protease variant OmpT D97N (protein)
chain: B1 chain with F97N

fusion protein PRF, sequence (chain, as listed by the source): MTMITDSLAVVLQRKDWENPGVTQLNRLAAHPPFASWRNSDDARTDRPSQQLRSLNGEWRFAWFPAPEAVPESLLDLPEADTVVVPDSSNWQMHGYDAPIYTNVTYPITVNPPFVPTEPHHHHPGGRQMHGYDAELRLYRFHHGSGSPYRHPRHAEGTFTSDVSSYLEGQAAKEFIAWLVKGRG
fusion protein PRI, sequence (chain, as listed by the source): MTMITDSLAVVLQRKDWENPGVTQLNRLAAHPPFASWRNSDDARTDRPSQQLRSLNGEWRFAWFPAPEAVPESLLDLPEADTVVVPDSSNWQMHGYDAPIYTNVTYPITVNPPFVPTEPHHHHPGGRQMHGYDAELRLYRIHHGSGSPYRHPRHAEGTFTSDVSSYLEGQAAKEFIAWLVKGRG
fusion protein PRW, sequence (chain, as listed by the source): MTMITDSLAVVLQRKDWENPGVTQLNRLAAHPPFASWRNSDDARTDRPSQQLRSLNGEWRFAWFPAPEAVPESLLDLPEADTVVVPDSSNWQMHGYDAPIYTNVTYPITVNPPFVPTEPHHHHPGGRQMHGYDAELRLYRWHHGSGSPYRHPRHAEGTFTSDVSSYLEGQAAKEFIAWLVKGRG
fusion protein PRK, sequence (chain, as listed by the source): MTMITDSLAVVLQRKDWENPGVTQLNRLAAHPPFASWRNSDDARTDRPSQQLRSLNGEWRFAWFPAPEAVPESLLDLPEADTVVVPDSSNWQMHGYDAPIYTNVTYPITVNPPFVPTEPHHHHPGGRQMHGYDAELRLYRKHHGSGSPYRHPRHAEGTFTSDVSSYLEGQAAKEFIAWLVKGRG
fusion protein PRN, sequence (chain, as listed by the source): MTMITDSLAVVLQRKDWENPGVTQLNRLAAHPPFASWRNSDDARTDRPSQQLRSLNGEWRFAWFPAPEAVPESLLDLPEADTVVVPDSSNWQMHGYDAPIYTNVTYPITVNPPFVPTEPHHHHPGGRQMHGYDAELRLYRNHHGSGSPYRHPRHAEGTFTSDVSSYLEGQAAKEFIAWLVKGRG
fusion protein PRY, sequence (chain, as listed by the source): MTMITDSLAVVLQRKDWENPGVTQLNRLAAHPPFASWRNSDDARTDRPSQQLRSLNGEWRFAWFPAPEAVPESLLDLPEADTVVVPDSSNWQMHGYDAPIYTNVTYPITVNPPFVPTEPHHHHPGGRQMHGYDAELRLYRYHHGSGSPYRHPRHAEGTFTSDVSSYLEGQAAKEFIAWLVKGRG
fusion protein PRH, sequence (chain, as listed by the source): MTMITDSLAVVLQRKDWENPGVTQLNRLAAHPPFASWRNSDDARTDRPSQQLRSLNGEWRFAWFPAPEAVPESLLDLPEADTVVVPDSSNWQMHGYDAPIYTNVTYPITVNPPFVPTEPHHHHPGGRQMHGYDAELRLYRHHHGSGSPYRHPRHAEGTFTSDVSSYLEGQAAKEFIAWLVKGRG
fusion protein PRC, sequence (chain, as listed by the source): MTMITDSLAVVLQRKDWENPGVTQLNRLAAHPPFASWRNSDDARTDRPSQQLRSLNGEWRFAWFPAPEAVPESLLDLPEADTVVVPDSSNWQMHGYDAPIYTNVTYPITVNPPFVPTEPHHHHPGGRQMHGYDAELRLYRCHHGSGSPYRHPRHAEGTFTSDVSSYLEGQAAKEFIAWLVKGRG

For the first data set, the target named is fusion protein PRA.
fusion protein PRA, sequence (chain, as listed by the source): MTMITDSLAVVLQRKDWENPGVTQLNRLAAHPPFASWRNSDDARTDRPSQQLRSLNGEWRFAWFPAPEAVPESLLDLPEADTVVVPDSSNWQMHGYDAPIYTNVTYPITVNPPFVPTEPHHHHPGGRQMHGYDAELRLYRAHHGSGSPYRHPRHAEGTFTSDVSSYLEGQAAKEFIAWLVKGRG
Protein B1 displayed a relative cleavage efficiency of 3.1%.
The protein B2 registered a relative cleavage efficiency of 4%.
Protein B3 yielded a relative cleavage efficiency of 3.8%.
As for B4, the relative cleavage efficiency is 6.8%.
For the protein B5, the relative cleavage efficiency was found to be 6.5%.
The same measure, in the same setting: the figure for B6 is 4%; for B7 it is 6.2%.
The same measure, in the same setting: the figure for B8 is 3.8%.

The next data set concerns the target fusion protein PRC.
In turn, B1 came in with a relative cleavage efficiency of under 3%.
On the same count and under the same terms, the figure for B2 is 3.1%; for B3 it is under 3%.
Turning to B4, the relative cleavage efficiency turned out to be 4.6%.
Still for that read-out and setting: in the case of B5 it was 6.9%.
The same measure, in the same setting: the figure for B6 is 4.1%.
Still for that read-out and setting: the figure for B7 is 4.8%.
Regarding B8, the relative cleavage efficiency was under 3%.

The target of the next data set is fusion protein PRD.
fusion protein PRD, sequence (chain, as listed by the source): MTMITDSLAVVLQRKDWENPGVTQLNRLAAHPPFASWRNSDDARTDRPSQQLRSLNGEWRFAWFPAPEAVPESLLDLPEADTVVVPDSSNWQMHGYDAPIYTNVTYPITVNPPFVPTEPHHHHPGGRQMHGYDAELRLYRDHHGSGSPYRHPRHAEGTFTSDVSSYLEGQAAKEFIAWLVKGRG
Turning to B1, the relative cleavage efficiency entry is recorded as “less than 3%”.
Consider B2, for which the relative cleavage efficiency result is on record as “less than 3%”.
Same read-out and setting: the entry for B3 is “less than 3%”.
As to B4, the relative cleavage efficiency result was “less than 3%”.
As for B5, the relative cleavage efficiency result is “less than 3%”.
Still for that read-out and setting: in the case of B6 it was “less than 3%”; in that of B7, “less than 3%”; in that of B8, “less than 3%”.

For the next data set, the target named is fusion protein PRE.
fusion protein PRE, sequence (chain, as listed by the source): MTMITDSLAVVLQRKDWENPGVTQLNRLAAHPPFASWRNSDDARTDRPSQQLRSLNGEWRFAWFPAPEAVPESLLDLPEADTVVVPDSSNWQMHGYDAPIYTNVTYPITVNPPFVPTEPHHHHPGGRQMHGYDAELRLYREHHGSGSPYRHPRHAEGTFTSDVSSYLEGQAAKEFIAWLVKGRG
B1: the relative cleavage efficiency entry is “less than 3%”.
With B2, the relative cleavage efficiency entry was “less than 3%”.
Consider B3, for which the relative cleavage efficiency result is “less than 3%”.
Still for that read-out and setting: in the case of B4 it was “less than 3%”.
For B5, the relative cleavage efficiency result is listed as “less than 3%”.
Same read-out and setting: the entry for B6 is “less than 3%”; for B7 it is “less than 3%”; for B8 it is “less than 3%”.

Another data set concerns the target fusion protein PRF.
As for B1, the relative cleavage efficiency was under 3%.
Take B2: the relative cleavage efficiency is under 3%.
Protein B3 had a relative cleavage efficiency of under 3%.
The protein B4 registered a relative cleavage efficiency of 3.7%.
The same measure, in the same setting: in the case of B5 it was 3.4%; in that of B6, under 3%; in that of B7, 4.6%.
B8 displayed a relative cleavage efficiency of under 3%.

A further data set deals with fusion protein PRG.
fusion protein PRG, sequence (chain, as listed by the source): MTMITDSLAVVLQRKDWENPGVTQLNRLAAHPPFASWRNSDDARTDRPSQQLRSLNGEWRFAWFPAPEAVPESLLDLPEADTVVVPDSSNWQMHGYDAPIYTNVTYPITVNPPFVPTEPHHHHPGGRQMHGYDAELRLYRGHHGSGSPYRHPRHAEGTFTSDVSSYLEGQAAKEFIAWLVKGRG
For B1, the relative cleavage efficiency entry is “less than 3%”.
With B2, the relative cleavage efficiency entry is “less than 3%”.
Regarding B3, the relative cleavage efficiency entry was “less than 3%”.
On the same count and under the same terms, the entry for B4 is “less than 3%”; for B5 it is “less than 3%”.
Same read-out and setting: in the case of B6 it was “less than 3%”; in that of B7, “less than 3%”; in that of B8, “less than 3%”.

A further data set addresses fusion protein PRH.
Take B1: the relative cleavage efficiency result was “less than 3%”.
The same measure, in the same setting: the entry for B2 is “less than 3%”; for B3 it is “less than 3%”.
Still for that read-out and setting: the entry for B4 is “less than 3%”; for B5 it is “less than 3%”.
For the protein B6, the relative cleavage efficiency result is reported as “less than 3%”.
Consider B7, for which the relative cleavage efficiency result is “less than 3%”.
Consider B8, for which the relative cleavage efficiency result was “less than 3%”.

Another data set concerns the target fusion protein PRI.
As to B1, the relative cleavage efficiency was under 3%.
Still for that read-out and setting: in the case of B2 it was under 3%; in that of B3, under 3%.
In turn, B4 showed a relative cleavage efficiency of under 3%.
Still for that read-out and setting: the figure for B5 is under 3%.
The same measure, in the same setting: the figure for B6 is under 3%.
The same measure, in the same setting: the figure for B7 is under 3%; for B8 it is under 3%.

Another data set addresses fusion protein PRK.
The protein B1 came in with a relative cleavage efficiency of under 3%.
For the protein B2, the relative cleavage efficiency was under 3%.
For B3, the relative cleavage efficiency is under 3%.
Still for that read-out and setting: in the case of B4 it was under 3%; in that of B5, 39%.
In turn, B6 displayed a relative cleavage efficiency of under 3%.
The same measure, in the same setting: in the case of B7 it was 3.9%.
On the same count and under the same terms, in the case of B8 it was under 3%.

The target of another data set is fusion protein PRL.
fusion protein PRL, sequence (chain, as listed by the source): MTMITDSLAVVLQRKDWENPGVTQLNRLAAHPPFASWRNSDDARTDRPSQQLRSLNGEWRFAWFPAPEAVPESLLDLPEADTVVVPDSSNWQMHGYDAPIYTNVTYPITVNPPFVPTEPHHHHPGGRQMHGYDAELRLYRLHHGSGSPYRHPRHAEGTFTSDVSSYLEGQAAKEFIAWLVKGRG
In the case of B1, the relative cleavage efficiency entry was “less than 3%”.
Turning to B2, the relative cleavage efficiency entry is “less than 3%”.
Same read-out and setting: the entry for B3 is “less than 3%”; for B4 it is “less than 3%”; for B5 it is “less than 3%”.
On to B6, for which the relative cleavage efficiency entry is “less than 3%”.
Regarding B7, the relative cleavage efficiency entry was “less than 3%”.
With B8, the relative cleavage efficiency entry is given as “less than 3%”.

The target of a further data set is fusion protein PRM.
fusion protein PRM, sequence (chain, as listed by the source): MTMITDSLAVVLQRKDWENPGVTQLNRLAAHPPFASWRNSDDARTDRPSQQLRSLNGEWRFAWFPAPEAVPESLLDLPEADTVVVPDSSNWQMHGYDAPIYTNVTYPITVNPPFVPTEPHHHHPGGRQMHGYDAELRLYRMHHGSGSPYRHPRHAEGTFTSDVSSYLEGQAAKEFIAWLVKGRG
B1: the relative cleavage efficiency is under 3%.
Protein B2 showed a relative cleavage efficiency of under 3%.
The same measure, in the same setting: in the case of B3 it was under 3%; in that of B4, under 3%; in that of B5, under 3%.
On the same count and under the same terms, the figure for B6 is under 3%; for B7 it is under 3%.
On the same count and under the same terms, the figure for B8 is under 3%.

A further data set addresses fusion protein PRN.
Protein B1 showed a relative cleavage efficiency of under 3%.
The same measure, in the same setting: in the case of B2 it was under 3%; in that of B3, under 3%; in that of B4, under 3%.
Still for that read-out and setting: in the case of B5 it was under 3%.
On the same count and under the same terms, the figure for B6 is under 3%; for B7 it is under 3%.
Take B8: the relative cleavage efficiency is under 3%.

For another data set, the target named is fusion protein PRP.
As to B1, the relative cleavage efficiency entry is on record as “less than 3%”.
On to B2, for which the relative cleavage efficiency entry is on record as “less than 3%”.
On the same count and under the same terms, the entry for B3 is “less than 3%”.
Regarding B4, the relative cleavage efficiency result was “less than 3%”.
B5: the relative cleavage efficiency entry was “less than 3%”.
Same read-out and setting: in the case of B6 it was “less than 3%”; in that of B7, “less than 3%”.
For B8, the relative cleavage efficiency result is given as “less than 3%”.

The target of another data set is fusion protein PRQ.
fusion protein PRQ, sequence (chain, as listed by the source): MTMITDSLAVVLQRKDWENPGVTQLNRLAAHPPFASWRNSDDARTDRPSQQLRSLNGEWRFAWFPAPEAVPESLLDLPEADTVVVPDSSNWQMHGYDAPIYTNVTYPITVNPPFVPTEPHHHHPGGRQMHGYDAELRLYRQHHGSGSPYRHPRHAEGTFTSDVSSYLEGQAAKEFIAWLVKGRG
For B1, the relative cleavage efficiency entry was “less than 3%”.
Still for that read-out and setting: the entry for B2 is “less than 3%”; for B3 it is “less than 3%”; for B4 it is “less than 3%”.
On the same count and under the same terms, the entry for B5 is “less than 3%”.
Still for that read-out and setting: the entry for B6 is “less than 3%”; for B7 it is “less than 3%”.
Take B8: the relative cleavage efficiency entry is reported as “less than 3%”.

In a further data set the target is fusion protein PRR.
fusion protein PRR, sequence (chain, as listed by the source): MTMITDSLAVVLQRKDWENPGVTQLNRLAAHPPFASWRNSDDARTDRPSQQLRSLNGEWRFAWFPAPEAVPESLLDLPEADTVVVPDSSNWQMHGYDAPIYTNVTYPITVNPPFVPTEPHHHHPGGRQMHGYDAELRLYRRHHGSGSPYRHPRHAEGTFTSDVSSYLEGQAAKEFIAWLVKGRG
Consider B1, for which the relative cleavage efficiency was under 3%.
Still for that read-out and setting: in the case of B2 it was under 3%.
The protein B3 displayed a relative cleavage efficiency of under 3%.
Still for that read-out and setting: the figure for B4 is under 3%.
Same read-out and setting: the figure for B5 is 49%; for B6 it is under 3%.
Take B7: the relative cleavage efficiency was determined as 4%.
Same read-out and setting: in the case of B8 it was under 3%.

The target of the next data set is fusion protein PRS.
fusion protein PRS, sequence (chain, as listed by the source): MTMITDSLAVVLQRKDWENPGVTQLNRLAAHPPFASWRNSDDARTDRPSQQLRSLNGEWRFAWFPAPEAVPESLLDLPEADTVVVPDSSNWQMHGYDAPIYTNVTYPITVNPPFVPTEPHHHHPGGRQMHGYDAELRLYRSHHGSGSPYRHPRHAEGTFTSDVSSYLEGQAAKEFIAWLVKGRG
Turning to B1, the relative cleavage efficiency is under 3%.
As for B2, the relative cleavage efficiency was under 3%.
B3 showed a relative cleavage efficiency of under 3%.
On the same count and under the same terms, in the case of B4 it was 7.4%; in that of B5, 7.2%.
Same read-out and setting: in the case of B6 it was 4.4%.
Consider B7, for which the relative cleavage efficiency came to 5.6%.
Take B8: the relative cleavage efficiency came to 4.1%.

For a further data set, the target named is fusion protein PRT.
fusion protein PRT, sequence (chain, as listed by the source): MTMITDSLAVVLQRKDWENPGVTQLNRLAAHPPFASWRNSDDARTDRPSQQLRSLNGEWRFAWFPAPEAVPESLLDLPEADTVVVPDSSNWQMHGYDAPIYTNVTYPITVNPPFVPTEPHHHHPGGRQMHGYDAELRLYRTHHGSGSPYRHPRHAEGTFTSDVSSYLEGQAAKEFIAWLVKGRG
B1 returned a relative cleavage efficiency of under 3%.
On the same count and under the same terms, the figure for B2 is under 3%.
Same read-out and setting: the figure for B3 is under 3%; for B4 it is under 3%.
As to B5, the relative cleavage efficiency was under 3%.
Still for that read-out and setting: the figure for B6 is under 3%.
Same read-out and setting: the figure for B7 is under 3%; for B8 it is under 3%.

A further data set concerns the target fusion protein PRW.
Turning to B1, the relative cleavage efficiency result is on record as “less than 3%”.
The same measure, in the same setting: the entry for B2 is “less than 3%”; for B3 it is “less than 3%”.
In the case of B4, the relative cleavage efficiency entry is given as “less than 3%”.
As for B5, the relative cleavage efficiency result was “less than 3%”.
Take B6: the relative cleavage efficiency entry is listed as “less than 3%”.
Consider B7, for which the relative cleavage efficiency result is listed as “less than 3%”.
For the protein B8, the relative cleavage efficiency result is on record as “less than 3%”.

The next data set addresses fusion protein PRY.
In turn, B1 showed a relative cleavage efficiency of under 3%.
On the same count and under the same terms, in the case of B2 it was under 3%; in that of B3, under 3%; in that of B4, under 3%.
The same measure, in the same setting: in the case of B5 it was under 3%; in that of B6, under 3%.
Same read-out and setting: the figure for B7 is under 3%.
In turn, B8 had a relative cleavage efficiency of under 3%.
